Assay results: patent US20230203469A1

Tests used:
[1] = molecular target: T1, FRETS-VWF73 substrate, P04275
T1 chain: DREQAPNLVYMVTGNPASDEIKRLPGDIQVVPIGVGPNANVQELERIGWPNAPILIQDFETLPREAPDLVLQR

[2] = molecular target: recombinant VWF (full-length, multimeric rVWF), P04275

B1: Q97 ADAMTS13 (wildtype recombinant ADAMTS13) (protein)
chain: AAGGILHLELLVAVGPDVFQAHQEDTERYVLTNLNIGAELLRDPSLGAQFRVHLVKMVILTEPEGAPNITANLTSSLLSVCGWSQTINPEDDTDPGHADLVLYITRFDLELPDGNRQVRGVTQLGGACSPTWSCLITEDTGFDLGVTIAHEIGHSFGLEHDGAPGSGCGPSGHVMASDGAAPRAGLAWSPCSRRQLLSLLSAGRARCVWDPPRPQPGSAGHPPDAQPGLYYSANEQCRVAFGPKAVACTFAREHLDMCQALSCHTDPLDQSSCSRLLVPLLDGTECGVEKWCSKGRCRSLVELTPIAAVHGRWSSWGPRSPCSRSCGGGVVTRRRQCNNPRPAFGGRACVGADLQAEMCNTQACEKTQLEFMSQQCARTDGQPLRSSPGGASFYHWGAAVPHSQGDALCRHMCRAIGESFIMKRGDSFLDGTRCMPSGPREDGTLSLCVSGSCRTFGCDGRMDSQQVWDRCQVCGGDNSTCSPRKGSFTAGRAREYVTFLTVTPNLTSVYIANHRPLFTHLAVRIGGRYVVAGKMSISPNTTYPSLLEDGRVEYRVALTEDRLPRLEEIRIWGPLQEDADIQVYRRYGEEYGNLTRPDITFTYFQPKPRQAWVWAAVRGPCSVSCGAGLRWVNYSCLDQARKELVETVQCQGSQQPPAWPEACVLEPCPPYWAVGDFGPCSASCGGGLRERPVRCVEAQGSLLKTLPPARCRAGAQQPAVALETCNPQPCPARWEVSEPSSCTSAGGAGLALENETCVPGADGLEAPVTEGPGSVDEKLPAPEPCVGMSCPPGWGHLDATSAGEKAPSPWGSIRTGAQAAHVWTPAAGSCSVSCGRGLMELRFLCMDSALRVPVQEELCGLASKPGSRREVCQAVPCPARWQYKLAACSVSCGRGVVRRILYCARAHGEDDGEEILLDTQCQGLPRPEPQEACSLEPCPPRWKVMSLGPCSASCGLGTARRSVACVQLDQGQDVEVDEAACAALVRPEASVPCLIADCTYRWHVGTWMECSVSCGDGIQRRRDTCLGPQAQAPVPADFCQHLPKPVTVRGCWAGPCVGQGTPSLVPHEEAAAPGRTTATPAGASLEWSQARGLLFSPAPQPRRLLPGPQENSVQSSACGRQHLEPTGTIDMRGPGQADCAVAIGRPLGEVVTLRVLESSLNCSAGDMLLLWGRLTWRKMCRKLLDMTFSSKTNTLVVRQRCGRPGGGVLLRYGSQLAPETFYRECDMQLFGPWGEIVSPSLSPATSNAGGCRLFINVAPHARIAIHALATNMGAGTEGANASYILIRDTHSLRTTAFHGQQVLYWESESSQAEMEFSEGFLKAQASLRGQYWTLQSWVPEMQDPQSWKGKEGT
In the case of B1, the Specific rADAMTS13 activity (activity per total protein by UV) [1] is reported as 1750 IU/mg, the rADAMTS13 Activity (FRETS VWF73) [1] is reported as 2210 IU/mL and the “Degradation of full-length rVWF under denaturing conditions (VWF multimer analysis)” value [2] is reported as “Comparable”.
